From patent publication US20180339057A1 (Novo Nordisk, published 2018)
Numbering of substitutions follows the chain as printed. Names and notes keep the numbering of the source.

Assays:
[1] = target: T1, human MIC-1 receptor (hGFRAL, GDNF family receptor alpha like), full length (human, UniProt Q6UXV0 19-394); assay: cell-based or functional assay
T1 sequence (looked up): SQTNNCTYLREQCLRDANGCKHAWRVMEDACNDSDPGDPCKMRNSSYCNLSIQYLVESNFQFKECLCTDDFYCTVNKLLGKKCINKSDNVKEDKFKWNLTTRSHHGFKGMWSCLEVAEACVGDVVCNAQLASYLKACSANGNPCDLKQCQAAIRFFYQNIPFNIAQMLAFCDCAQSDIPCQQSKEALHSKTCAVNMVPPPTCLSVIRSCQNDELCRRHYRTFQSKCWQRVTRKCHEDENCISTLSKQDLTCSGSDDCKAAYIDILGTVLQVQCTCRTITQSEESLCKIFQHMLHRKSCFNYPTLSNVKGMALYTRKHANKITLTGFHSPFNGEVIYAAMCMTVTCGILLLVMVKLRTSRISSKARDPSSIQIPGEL

[2] = target: T1, human MIC-1 receptor (hGFRAL, GDNF …); assay: cell-based or functional assay; remark: listed apart in the source
[3] = target: T1, human MIC-1 receptor (hGFRAL, GDNF …); assay: SPA: displacement of 50 pM human [125I]-MIC-1 from BHK21-hGFRAL-IRES-hRET cell membranes
Protocol: Binding potencies of MIC-1 compounds were calculated by IC50 of displacement curves.
BHK21-hGFRAL-IRES-hRET cells were cultured at +37° C. in a humidified atmosphere with 5% CO₂ in complete medium consisting of DMEM with high glucose and sodium pyrovate, heat inactivated 10% Fetal Bovine Serum, 1% Penicillin-Streptomycin, 1 mg/ml G418-Geneticin and 400 ug/ml Hygromycin. Cells were washed twice in ice cold Dulbecco's phosphate-buffered saline (DPBS) and detached mechanically by scraping, transferred in ice cold DPBS into conical centrifuge tubes and centrifuged for 5 min at 1500 rpm at +20° C. Cell pellet was resuspended in a total amount of 10 ml ice cold homogenization buffer A (50 mM Tris, 2.5 mM EDTA, adjust pH7.4 with one EDTA-free protease inhibitor cocktail tablet/50 ml) and homogenized for 20 seconds. The homogenate was centrifuged at 16000 rpm in 20 minutes at +4° C. The supernatant was discarded and the pellet was reconstituted in 10 ml homogenization buffer B (50 mM Tris, 320 mM Sucrose, adjust pH 7.4 with one EDTA-free protease inhibitor cocktail tablet/50 ml) and homogenized for 20 seconds and centrifuged at 16000 rpm in 20 minutes at +4° C. This procedure was repeated one more time. The supernatant was discarded and the pellet was reconstituted in 3 ml homogenization buffer B and homogenized for 10 seconds at low speed. Protein concentration was determined by standard Bradford method and 1.5 mg protein/tube was aliquoted to cryotubes and stored at −80° C. Binding assays were performed in white 96-well plates in a total volume of 200 μl per well. Wheat germ agglutinin SPA beads were reconstituted in assay buffer (50 mM Tris/HCl, 4.5 mM MgCl₂, 0.02% Tween 20 and 0.25% Ovalbumin pH 7.4) and mixed with membrane preparation to give a final concentration of 0.5 mg SPA beads and 10 μg total protein per well. […] The plate was sealed and incubated at +22° C. for 2 hours in a plate shaker set at 350 rpm and thereafter centrifuged at 1500 rpm for 10 minutes prior to reading of SPA bead light emission.

B1: AAPEDEETPEQEGSGSGSGSGS-MIC-1-Δ1-3 (ligand)
chain: AAPEDEETPEQEGSGSGSGSGSGDHCPLGPGRCCRLHTVRASLEDLGWADWVLSPREVQVTMCIGACPSQFRAANMHAQIKTSLHRLKPDTVPAPCCVPASYNPMVLIQKTDTGVSLQTYDDLLAKDCHCI
- Emax (%) [1]: 100%
- pERK EC50 (nM) [1]: 0.5 nM

B2: AAPDEGTEEETEGSGSGSGSGS-MIC-1-Δ1-3 (ligand)
chain: B1 chain with E4D, D5E, E6G, E7T, T8E, P9E, Q11T
- Emax (%) [1]: 100%
- pERK EC50 (nM) [1]: 0.5 nM

B3: SEPATSGSETPGTSESATPESGPGTSTEPS-MIC-1-Δ1-3 (ligand)
chain: SEPATSGSETPGTSESATPESGPGTSTEPSGDHCPLGPGRCCRLHTVRASLEDLGWADWVLSPREVQVTMCIGACPSQFRAANMHAQIKTSLHRLKPDTVPAPCCVPASYNPMVLIQKTDTGVSLQTYDDLLAKDCHCI
- Emax (%) [1]: 100%
- pERK EC50 (nM) [1]: 0.4 nM

B4: SEPATSGSETPGTSESATPESGPGTSTEPSEG-MIC-1-des-N3 (M57L, M86L) (ligand)
chain: SEPATSGSETPGTSESATPESGPGTSTEPSEGARGDHCPLGPGRCCRLHTVRASLEDLGWADWVLSPREVQVTMCIGACPSQFRAANLHAQIKTSLHRLKPDTVPAPCCVPASYNPLVLIQKTDTGVSLQTYDDLLAKDCHCI
notes: homodimer; no protractor
- Luciferase + 0.1% HSA NNDK EC50 (pM) [2]: 64 pM
- Luciferase NNDK EC50 (pM) [2]: 85 pM
- IC50 [3]: 119 nM

B5: Compound 07 (ligand)
chain: B4 chain with T18C
modifications: Cys-15 (residue 18 of SEQ ID NO: 292): S{Beta}-[2-[2-[[2-[2-[2-[[2-[2-[2-[[(4S)-4-carboxy-4-(17-carboxyheptadecanoylamino)butanoyl]amino]ethoxy]ethoxy]acetyl]amino]ethoxy]ethoxy]acetyl]amino]ethylamino]-2-oxoethyl]Cys (protractor of Example 10.4)
notes: homodimer, two protractors per dimer
- Luciferase + 0.1% HSA NNDK EC50 (pM) [2]: 198 pM
- Luciferase NNDK EC50 (pM) [2]: 121 pM
- IC50 [3]: 29 nM

B6: Compound 05 (ligand)
chain: B4 chain with G7C
modifications: Cys-26 (residue 7 of SEQ ID NO: 289): S{Beta}-[2-[2-[[2-[2-[2-[[2-[2-[2-[[(4S)-4-carboxy-4-(17-carboxyheptadecanoylamino)butanoyl]amino]ethoxy]ethoxy]acetyl]amino]ethoxy]ethoxy]acetyl]amino]ethylamino]-2-oxoethyl]Cys (protractor of Example 10.4)
notes: as for B5
- Luciferase + 0.1% HSA NNDK EC50 (pM) [2]: 63 pM
- Luciferase NNDK EC50 (pM) [2]: 57 pM
- IC50 [3]: 23 nM

B7: Compound 02 (ligand)
chain: B4 chain with S6C, L88M, L117M
modifications: Cys-27 (residue 6 of SEQ ID NO: 291): S{Beta}-[2-[2-[[2-[2-[2-[[2-[2-[2-[[(4S)-4-carboxy-4-(17-carboxyheptadecanoylamino)butanoyl]amino]ethoxy]ethoxy]acetyl]amino]ethoxy]ethoxy]acetyl]amino]ethylamino]-2-oxoethyl]Cys
notes: as for B5
- Luciferase + 0.1% HSA NNDK EC50 (pM) [2]: 107 pM
- Luciferase NNDK EC50 (pM) [2]: 123 pM
- IC50 [3]: 4.9 nM

B8: Compound 01 (ligand)
chain: B4 chain with A4C, L88M, L117M
modifications: Cys-29 (residue 4 of SEQ ID NO: 288): S{Beta}-[2-[2-[[2-[2-[2-[[2-[2-[2-[[(4S)-4-carboxy-4-(17-carboxyheptadecanoylamino)butanoyl]amino]ethoxy]ethoxy]acetyl]amino]ethoxy]ethoxy]acetyl]amino]ethylamino]-2-oxoethyl]Cys (protractor of Example 10.4)
notes: as for B5
- Luciferase + 0.1% HSA NNDK EC50 (pM) [2]: 59 pM
- Luciferase NNDK EC50 (pM) [2]: 72 pM
- IC50 [3]: 3.8 nM

B9: Compound 03 (ligand)
chain: B4 chain with S6C, L88M, L117M
modifications: Cys-27 (residue 6 of SEQ ID NO: 291): S{Beta}-[2-[2-[[2-[2-[2-[[2-[2-[2-[[(4S)-4-carboxy-4-(15-carboxypentadecanoylamino)butanoyl]amino]ethoxy]ethoxy]acetyl]amino]ethoxy]ethoxy]acetyl]amino]ethylamino]-2-oxoethyl]Cys (protractor of Example 10.2)
notes: as for B5
- Luciferase + 0.1% HSA NNDK EC50 (pM) [2]: 106 pM
- Luciferase NNDK EC50 (pM) [2]: 96 pM
- IC50 [3]: 11 nM

B10: Compound 08 (ligand)
chain: B4 chain with S30C
modifications: Cys-3 (residue 30 of SEQ ID NO: 293): S{Beta}-[2-[2-[[2-[2-[2-[[2-[2-[2-[[(4S)-4-carboxy-4-(17-carboxyheptadecanoylamino)butanoyl]amino]ethoxy]ethoxy]acetyl]amino]ethoxy]ethoxy]acetyl]amino]ethylamino]-2-oxoethyl]Cys (protractor of Example 10.4)
notes: as for B5
- Luciferase + 0.1% HSA NNDK EC50 (pM) [2]: 651 pM
- Luciferase NNDK EC50 (pM) [2]: 139 pM
- IC50 [3]: 56 nM

B11: Compound 06 (ligand)
chain: B4 chain with S8C
modifications: Cys-25 (residue 8 of SEQ ID NO: 303): S{Beta}-[2-[2-[[2-[2-[2-[[2-[2-[2-[[(4S)-4-carboxy-4-(17-carboxyheptadecanoylamino)butanoyl]amino]ethoxy]ethoxy]acetyl]amino]ethoxy]ethoxy]acetyl]amino]ethylamino]-2-oxoethyl]Cys (protractor of Example 10.4)
notes: as for B5
- Luciferase + 0.1% HSA NNDK EC50 (pM) [2]: 61 pM
- Luciferase NNDK EC50 (pM) [2]: 81 pM
- IC50 [3]: 21 nM

B12: Compound 04 (ligand)
chain: B4 chain with S6C, L88M, L117M
modifications: Cys-27 (residue 6 of SEQ ID NO: 291): S{Beta}-[2-[2-[[2-[2-[2-[[2-[2-[2-[[(4S)-4-carboxy-4-(13-carboxytridecanoylamino)butanoyl]amino]ethoxy]ethoxy]acetyl]amino]ethoxy]ethoxy]acetyl]amino]ethylamino]-2-oxoethyl]Cys (protractor of Example 10.3)
notes: as for B5
- Luciferase + 0.1% HSA NNDK EC50 (pM) [2]: 58 pM
- Luciferase NNDK EC50 (pM) [2]: 90 pM
- IC50 [3]: 17 nM

B13: SEPATSGSETPGTSESATPESGPGTSTEPSEG-MIC-1-Δ1-3 (ligand)
chain: SEPATSGSETPGTSESATPESGPGTSTEPSEGGDHCPLGPGRCCRLHTVRASLEDLGWADWVLSPREVQVTMCIGACPSQFRAANMHAQIKTSLHRLKPDTVPAPCCVPASYNPMVLIQKTDTGVSLQTYDDLLAKDCHCI
- Emax (%) [1]: 100%
- pERK EC50 (nM) [1]: 0.4 nM

B14: MIC-1(R2A,N3E,A54E) (ligand)
chain: AAEGDHCPLGPGRCCRLHTVRASLEDLGWADWVLSPREVQVTMCIGACPSQFREANMHAQIKTSLHRLKPDTVPAPCCVPASYNPMVLIQKTDTGVSLQTYDDLLAKDCHCI
- Emax (%) [1]: 100%
- pERK EC50 (nM) [1]: 0.3 nM

B15: MIC-1(R2A,N3E,A81E) (ligand)
chain: B14 chain with E54A, A81E
- Emax (%) [1]: 100%
- pERK EC50 (nM) [1]: 0.3 nM

B16: A(GPEQGQEP)3-MIC-1-Δ1-3 (ligand)
chain: AGPEQGQEPGPEQGQEPGPEQGQEPGDHCPLGPGRCCRLHTVRASLEDLGWADWVLSPREVQVTMCIGACPSQFRAANMHAQIKTSLHRLKPDTVPAPCCVPASYNPMVLIQKTDTGVSLQTYDDLLAKDCHCI
- Emax (%) [1]: 100%
- pERK EC50 (nM) [1]: 0.8 nM

B17: AASPAGSPTSTEEGTSESATPESGPG-MIC-1-Δ1-3 (ligand)
chain: AASPAGSPTSTEEGTSESATPESGPGGDHCPLGPGRCCRLHTVRASLEDLGWADWVLSPREVQVTMCIGACPSQFRAANMHAQIKTSLHRLKPDTVPAPCCVPASYNPMVLIQKTDTGVSLQTYDDLLAKDCHCI
- Emax (%) [1]: 100%
- pERK EC50 (nM) [1]: 0.7 nM

B18: …-MIC-1-Δ1-3 (ligand)
chain: SEPATSGSETPGTSTEPSEGSAPGGDHCPLGPGRCCRLHTVRASLEDLGWADWVLSPREVQVTMCIGACPSQFRAANMHAQIKTSLHRLKPDTVPAPCCVPASYNPMVLIQKTDTGVSLQTYDDLLAKDCHCI
- Emax (%) [1]: 100%
- pERK EC50 (nM) [1]: 0.7 nM

B19: (SEPATSGSETPG)2-MIC-1-Δ1-3(M57L) (ligand)
chain: B18 chain with T13S, S14E, T15P, E16A, P17T, E19G, G20S, S21E, A22T, M78L
- Emax (%) [1]: 100%
- pERK EC50 (nM) [1]: 0.6 nM

B20: (SEPATSGSETPG)2-MIC-1-Δ1-3 (ligand)
chain: B18 chain with T13S, S14E, T15P, E16A, P17T, E19G, G20S, S21E, A22T
- Emax (%) [1]: 100%
- pERK EC50 (nM) [1]: 0.4 nM

B21: (SEPATSGSETPG)2-MIC-1-Δ1-3(M86L) (ligand)
chain: B18 chain with T13S, S14E, T15P, E16A, P17T, E19G, G20S, S21E, A22T, M107L
- Emax (%) [1]: 100%
- pERK EC50 (nM) [1]: 0.4 nM

B22: (SEPATSGSETPG)2-MIC-1-Δ1-3(M57E) (ligand)
chain: B18 chain with T13S, S14E, T15P, E16A, P17T, E19G, G20S, S21E, A22T, M78E
- Emax (%) [1]: 60%
- pERK EC50 (nM) [1]: 0.6 nM

B23: AAPEDEETPEQE-MIC-1-Δ1-3 (ligand)
chain: AAPEDEETPEQEGDHCPLGPGRCCRLHTVRASLEDLGWADWVLSPREVQVTMCIGACPSQFRAANMHAQIKTSLHRLKPDTVPAPCCVPASYNPMVLIQKTDTGVSLQTYDDLLAKDCHCI
- Emax (%) [1]: 100%
- pERK EC50 (nM) [1]: 0.5 nM

B24: (SEPATSGSETPG)2-MIC-1-Δ1-3(M57L, M86L) (ligand)
chain: SEPATSGSETPGSEPATSGSETPGGDHCPLGPGRCCRLHTVRASLEDLGWADWVLSPREVQVTMCIGACPSQFRAANLHAQIKTSLHRLKPDTVPAPCCVPASYNPLVLIQKTDTGVSLQTYDDLLAKDCHCI
- Emax (%) [1]: 100%
- pERK EC50 (nM) [1]: 0.4 nM

B25: TSESATPESGPGTSESATPESGPG-MIC-1(R2A,N3E) (ligand)
chain: TSESATPESGPGTSESATPESGPGAAEGDHCPLGPGRCCRLHTVRASLEDLGWADWVLSPREVQVTMCIGACPSQFRAANMHAQIKTSLHRLKPDTVPAPCCVPASYNPMVLIQKTDTGVSLQTYDDLLAKDCHCI
- Emax (%) [1]: 100%
- pERK EC50 (nM) [1]: 0.3 nM
